Source: PMC10453824

System: T1, rVapB47 (rRv3407) (Mycobacterium bovis BCG Moreau), ORF:ad596061
T1 sequence: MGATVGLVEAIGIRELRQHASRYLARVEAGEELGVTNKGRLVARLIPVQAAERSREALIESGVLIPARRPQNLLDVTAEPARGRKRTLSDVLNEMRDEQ
Experiment: EMSA

| Sequence | binding |
| --- | --- |
| GGTGCTACATAATTGCGTTGCGCTTACTGGTTGATCAGCCAGCGATCTCCATCGGCGCCCCGCTGATCACCCGGCTAGCCTGCCCGTACACGTCGA (double strand) [07promF-R1 (96 bp)] | no binding |
| TCGACGTGTACGGGCAGGCTAGCCGGGTGATCAGCGGGGCGCCGATGGAGATCGCTGGCTGATCAACCAGTAAGCGCAACGCAATTATGTAGCACCATGCGTGCTACCGTTGGGCTTGTGGA (double strand) [07promF-R2 (122 bp)] | binds |
